The values that follow come from publication PMC5511134, “Intrinsic dynamics study identifies two amino acids of TIMP-1 critical for its LRP-1-mediated endocytosis in neurons” (Scientific Reports, 2017).

Assay [1] addresses T1, MMP-3 catalytic domain (UniProt P08254 100-272).
T1 construct: MMP-3 catalytic domain; source: bought: Merck Biosciences
In words: enzyme inhibition assay (fluorogenic substrate, Morrison equation); 2.3 nM MMP-3 catalytic domain incubated 1 h at 27 °C with 0.1 to 5.4 nM TIMP-1 or mutants in 50 mM Tris-HCl pH 7.5, 150 mM NaCl, 5 mM CaCl2; 3 µM MMP-3 fluorogenic substrate. As to conditions: both partners purified.

Assay [2] concerns the target T2, MMP-2 (UniProt P08253 110-660).
T2 construct: MMP-2; source: bought: Merck Biosciences
T2 sequence (looked up): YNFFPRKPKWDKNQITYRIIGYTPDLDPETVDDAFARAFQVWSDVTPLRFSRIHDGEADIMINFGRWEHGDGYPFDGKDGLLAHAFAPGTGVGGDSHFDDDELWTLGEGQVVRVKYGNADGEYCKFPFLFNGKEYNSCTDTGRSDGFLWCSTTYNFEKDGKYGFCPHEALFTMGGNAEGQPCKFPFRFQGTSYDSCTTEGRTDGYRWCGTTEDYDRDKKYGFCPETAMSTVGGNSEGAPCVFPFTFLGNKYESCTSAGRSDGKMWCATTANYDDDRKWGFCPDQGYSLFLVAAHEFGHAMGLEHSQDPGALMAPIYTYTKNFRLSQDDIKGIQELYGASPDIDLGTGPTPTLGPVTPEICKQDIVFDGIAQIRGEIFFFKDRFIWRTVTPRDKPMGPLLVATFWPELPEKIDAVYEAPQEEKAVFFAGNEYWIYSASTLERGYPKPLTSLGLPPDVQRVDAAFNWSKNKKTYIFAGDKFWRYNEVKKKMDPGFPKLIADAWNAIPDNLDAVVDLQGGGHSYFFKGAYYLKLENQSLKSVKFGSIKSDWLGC
In words: enzyme inhibition assay (fluorogenic substrate, Morrison equation); 0.76 nM MMP-2 incubated 2 h at 27 °C with 0.17 to 13.5 nM TIMP-1 or mutants in 50 mM Tris-HCl pH 7.5, 150 mM NaCl, 5 mM CaCl2; 2.5 µM MMP-2/-7 fluorogenic substrate. As to conditions: both partners purified.

The target of assay [3] is T3, MMP-9 (UniProt P14780 107-707).
T3 construct: MMP-9; source: bought: Merck Biosciences
In words: enzyme inhibition assay (fluorogenic substrate, Morrison equation); 0.3 nM MMP-9 incubated 2 h at 27 °C with 0.7 to 11 nM TIMP-1 or mutants in 50 mM Tris-HCl pH 7.5, 150 mM NaCl, 5 mM CaCl2; 5 µM MMP-1/-9 fluorogenic substrate. As to conditions: both partners purified.

In assay [4] the target is T4, Recombinant LRP-1 mini-domain DIV with an Fc-tag (UniProt Q07954 3332-3778).
T4 construct: No catalogue number is printed; also called LRP-1 domain IV; source: bought: R&D
T4 sequence (Q07954 3332-3778): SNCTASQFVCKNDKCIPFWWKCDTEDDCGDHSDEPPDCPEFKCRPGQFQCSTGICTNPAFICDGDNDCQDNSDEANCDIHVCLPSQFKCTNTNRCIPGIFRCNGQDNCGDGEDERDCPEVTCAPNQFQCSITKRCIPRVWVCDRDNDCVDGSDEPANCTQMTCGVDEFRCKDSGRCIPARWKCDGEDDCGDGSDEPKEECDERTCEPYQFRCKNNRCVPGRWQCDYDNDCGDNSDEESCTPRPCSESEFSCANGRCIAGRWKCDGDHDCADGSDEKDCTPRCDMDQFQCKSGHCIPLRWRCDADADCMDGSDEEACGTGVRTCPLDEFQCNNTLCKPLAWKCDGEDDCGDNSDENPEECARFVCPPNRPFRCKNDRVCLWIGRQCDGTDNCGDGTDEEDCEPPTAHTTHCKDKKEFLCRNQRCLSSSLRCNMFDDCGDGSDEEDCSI
The assay can be described thus: SPR; Biacore T200; LRP-1 DII or DIV with Fc-tag immobilised on a CMD500m chip functionalised with anti-Fc antibody; TIMP-1 or mutants 5-160 nM injected, multi-cycle kinetics; HBS-N (50 mM Hepes, 150 mM NaCl, 0.005% Tween, pH 7.4); KD calculated from kon and koff. As to conditions: both partners purified.

Assay [5] deals with T5, Recombinant LRP-1 mini-domain DII with an Fc-tag (UniProt Q07954 852-1182).
T5 construct: No catalogue number is printed; also called LRP-1 domain II; source: bought: R&D
T5 sequence (looked up): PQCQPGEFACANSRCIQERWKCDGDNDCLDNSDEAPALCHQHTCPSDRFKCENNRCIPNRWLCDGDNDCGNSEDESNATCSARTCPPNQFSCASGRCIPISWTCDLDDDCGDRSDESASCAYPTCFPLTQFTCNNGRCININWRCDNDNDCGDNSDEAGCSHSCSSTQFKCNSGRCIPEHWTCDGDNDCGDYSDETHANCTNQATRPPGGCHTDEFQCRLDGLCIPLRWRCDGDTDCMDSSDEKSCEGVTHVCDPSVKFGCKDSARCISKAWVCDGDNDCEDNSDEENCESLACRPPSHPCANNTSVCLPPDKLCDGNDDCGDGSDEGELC
The assay is described as above. Conditions: both partners purified.

For assay [6], the target named is T6, low-density lipoprotein receptor-related protein-1 (LRP-1) on mouse cortical neurons (mouse (endogenous in cortical neurons), UniProt Q91ZX7 20-4545).
T6 construct: LRP-1 at the surface of primary cortical neurons; extracellular alpha-chain non-covalently associated with the transmembrane beta-chain; source: endogenous, primary cortical neurons from CD1 mouse embryos
T6 sequence (Q91ZX7 20-4545): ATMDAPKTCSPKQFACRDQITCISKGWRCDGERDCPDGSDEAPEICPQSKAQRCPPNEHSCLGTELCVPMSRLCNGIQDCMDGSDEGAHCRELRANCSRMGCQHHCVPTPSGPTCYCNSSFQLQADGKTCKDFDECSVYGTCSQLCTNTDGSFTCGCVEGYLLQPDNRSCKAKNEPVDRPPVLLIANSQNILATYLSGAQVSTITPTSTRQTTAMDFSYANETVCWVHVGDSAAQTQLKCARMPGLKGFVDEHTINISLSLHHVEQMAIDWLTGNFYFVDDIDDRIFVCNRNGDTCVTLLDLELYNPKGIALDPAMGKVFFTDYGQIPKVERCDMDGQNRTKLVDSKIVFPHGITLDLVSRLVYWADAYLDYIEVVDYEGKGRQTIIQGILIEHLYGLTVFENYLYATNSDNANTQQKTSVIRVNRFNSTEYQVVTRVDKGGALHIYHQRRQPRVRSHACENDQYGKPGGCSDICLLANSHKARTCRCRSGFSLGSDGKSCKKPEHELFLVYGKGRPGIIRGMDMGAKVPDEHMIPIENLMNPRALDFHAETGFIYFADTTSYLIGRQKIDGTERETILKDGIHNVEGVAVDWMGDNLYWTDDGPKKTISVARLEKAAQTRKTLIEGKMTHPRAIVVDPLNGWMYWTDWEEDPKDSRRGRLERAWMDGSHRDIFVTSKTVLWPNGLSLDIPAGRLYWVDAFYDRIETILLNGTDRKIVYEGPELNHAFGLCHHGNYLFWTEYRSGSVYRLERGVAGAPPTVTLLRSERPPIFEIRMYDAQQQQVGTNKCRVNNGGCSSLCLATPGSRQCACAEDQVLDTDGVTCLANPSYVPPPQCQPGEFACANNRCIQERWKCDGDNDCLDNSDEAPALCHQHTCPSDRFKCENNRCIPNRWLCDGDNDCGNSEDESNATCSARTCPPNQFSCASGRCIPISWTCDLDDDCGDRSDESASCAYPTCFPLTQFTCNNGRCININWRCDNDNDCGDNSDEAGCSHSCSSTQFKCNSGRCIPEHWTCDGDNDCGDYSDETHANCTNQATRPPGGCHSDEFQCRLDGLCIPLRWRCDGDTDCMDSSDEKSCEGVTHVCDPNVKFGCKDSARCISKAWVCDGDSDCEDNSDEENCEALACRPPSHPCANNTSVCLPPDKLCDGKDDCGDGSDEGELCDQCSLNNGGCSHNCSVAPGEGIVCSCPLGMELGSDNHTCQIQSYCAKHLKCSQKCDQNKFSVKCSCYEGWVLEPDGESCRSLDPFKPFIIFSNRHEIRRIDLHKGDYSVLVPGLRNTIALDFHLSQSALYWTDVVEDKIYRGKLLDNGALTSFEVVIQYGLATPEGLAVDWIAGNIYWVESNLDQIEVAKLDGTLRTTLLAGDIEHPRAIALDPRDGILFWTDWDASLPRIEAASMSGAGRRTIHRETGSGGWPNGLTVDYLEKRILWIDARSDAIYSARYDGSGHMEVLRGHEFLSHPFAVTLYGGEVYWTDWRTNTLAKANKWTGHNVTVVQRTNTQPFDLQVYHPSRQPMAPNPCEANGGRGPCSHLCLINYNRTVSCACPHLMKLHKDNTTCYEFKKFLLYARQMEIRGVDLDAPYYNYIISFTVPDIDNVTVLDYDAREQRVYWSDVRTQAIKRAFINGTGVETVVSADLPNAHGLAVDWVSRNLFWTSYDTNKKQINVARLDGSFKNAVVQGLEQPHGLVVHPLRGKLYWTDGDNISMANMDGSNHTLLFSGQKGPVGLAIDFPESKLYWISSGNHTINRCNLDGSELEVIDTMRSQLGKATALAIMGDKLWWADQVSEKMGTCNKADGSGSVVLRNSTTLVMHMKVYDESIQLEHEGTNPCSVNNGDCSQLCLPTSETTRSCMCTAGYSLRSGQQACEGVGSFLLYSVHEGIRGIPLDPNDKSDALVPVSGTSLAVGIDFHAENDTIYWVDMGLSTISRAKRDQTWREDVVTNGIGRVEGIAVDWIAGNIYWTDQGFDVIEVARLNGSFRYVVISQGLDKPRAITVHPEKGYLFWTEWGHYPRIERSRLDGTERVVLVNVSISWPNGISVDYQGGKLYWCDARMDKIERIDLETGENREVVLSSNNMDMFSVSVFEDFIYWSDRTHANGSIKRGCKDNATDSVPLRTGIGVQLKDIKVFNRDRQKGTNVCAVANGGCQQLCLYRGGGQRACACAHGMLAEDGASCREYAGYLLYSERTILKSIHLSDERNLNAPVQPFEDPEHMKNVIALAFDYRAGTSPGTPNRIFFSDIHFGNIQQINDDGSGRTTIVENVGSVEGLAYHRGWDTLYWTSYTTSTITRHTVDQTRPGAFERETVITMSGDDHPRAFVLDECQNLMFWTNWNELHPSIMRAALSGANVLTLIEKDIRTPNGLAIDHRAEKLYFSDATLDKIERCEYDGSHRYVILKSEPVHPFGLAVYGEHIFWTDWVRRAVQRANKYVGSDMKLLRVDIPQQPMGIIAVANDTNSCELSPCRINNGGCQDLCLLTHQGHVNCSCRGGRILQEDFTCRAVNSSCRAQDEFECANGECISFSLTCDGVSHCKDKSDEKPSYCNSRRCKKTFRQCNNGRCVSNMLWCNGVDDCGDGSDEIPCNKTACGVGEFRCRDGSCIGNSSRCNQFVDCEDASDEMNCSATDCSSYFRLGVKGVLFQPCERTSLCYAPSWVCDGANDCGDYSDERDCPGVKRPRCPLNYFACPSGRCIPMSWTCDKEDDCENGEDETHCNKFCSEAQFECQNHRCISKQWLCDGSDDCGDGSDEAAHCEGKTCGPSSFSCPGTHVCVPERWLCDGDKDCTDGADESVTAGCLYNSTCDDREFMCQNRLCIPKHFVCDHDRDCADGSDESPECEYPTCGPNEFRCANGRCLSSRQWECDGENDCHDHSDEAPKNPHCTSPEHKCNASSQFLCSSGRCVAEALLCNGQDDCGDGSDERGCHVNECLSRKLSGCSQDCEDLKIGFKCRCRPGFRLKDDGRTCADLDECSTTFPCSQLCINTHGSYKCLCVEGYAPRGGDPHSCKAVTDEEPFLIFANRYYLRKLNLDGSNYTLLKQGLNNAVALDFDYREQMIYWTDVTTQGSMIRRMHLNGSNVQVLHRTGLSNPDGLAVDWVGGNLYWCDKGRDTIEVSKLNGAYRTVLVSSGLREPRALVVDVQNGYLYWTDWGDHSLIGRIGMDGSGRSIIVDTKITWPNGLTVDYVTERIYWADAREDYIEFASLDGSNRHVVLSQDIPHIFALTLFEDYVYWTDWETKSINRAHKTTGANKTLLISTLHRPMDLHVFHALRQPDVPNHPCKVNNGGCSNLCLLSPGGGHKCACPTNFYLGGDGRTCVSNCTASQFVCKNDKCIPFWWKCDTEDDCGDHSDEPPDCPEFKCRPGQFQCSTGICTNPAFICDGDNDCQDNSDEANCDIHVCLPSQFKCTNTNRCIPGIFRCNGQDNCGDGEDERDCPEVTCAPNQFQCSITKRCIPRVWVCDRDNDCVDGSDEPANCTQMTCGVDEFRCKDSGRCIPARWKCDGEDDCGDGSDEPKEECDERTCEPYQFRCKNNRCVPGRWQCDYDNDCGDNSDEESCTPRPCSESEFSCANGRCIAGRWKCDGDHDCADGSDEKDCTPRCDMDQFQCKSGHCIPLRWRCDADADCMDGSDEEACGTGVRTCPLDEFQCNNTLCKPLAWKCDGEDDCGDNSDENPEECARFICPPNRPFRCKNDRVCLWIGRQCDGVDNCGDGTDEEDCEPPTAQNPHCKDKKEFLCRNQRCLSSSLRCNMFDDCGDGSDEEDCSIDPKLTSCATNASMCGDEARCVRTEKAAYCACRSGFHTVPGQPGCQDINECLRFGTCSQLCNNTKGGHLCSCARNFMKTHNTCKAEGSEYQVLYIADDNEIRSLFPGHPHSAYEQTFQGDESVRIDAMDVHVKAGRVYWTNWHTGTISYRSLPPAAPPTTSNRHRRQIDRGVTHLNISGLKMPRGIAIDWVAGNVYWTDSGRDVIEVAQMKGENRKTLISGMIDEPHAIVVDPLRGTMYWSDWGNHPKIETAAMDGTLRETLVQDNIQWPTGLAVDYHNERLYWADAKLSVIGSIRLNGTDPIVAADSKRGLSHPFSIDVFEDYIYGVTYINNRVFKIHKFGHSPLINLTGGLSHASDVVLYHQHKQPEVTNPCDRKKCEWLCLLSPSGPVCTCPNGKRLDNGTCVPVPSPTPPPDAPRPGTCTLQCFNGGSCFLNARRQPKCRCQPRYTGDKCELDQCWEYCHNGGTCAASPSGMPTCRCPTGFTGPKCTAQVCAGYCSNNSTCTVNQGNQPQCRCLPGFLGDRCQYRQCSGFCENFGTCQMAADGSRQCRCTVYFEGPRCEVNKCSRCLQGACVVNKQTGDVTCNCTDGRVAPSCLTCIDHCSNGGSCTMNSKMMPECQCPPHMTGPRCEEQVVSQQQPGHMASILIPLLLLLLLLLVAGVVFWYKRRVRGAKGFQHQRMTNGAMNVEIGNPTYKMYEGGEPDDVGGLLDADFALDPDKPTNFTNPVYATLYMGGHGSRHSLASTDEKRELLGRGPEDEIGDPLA
The assay can be described thus: fluorescence of ligand bound to the cell surface (released by pronase, spectrofluorimetry); mouse cortical neurons incubated at 4 °C with 5 nM eFluor-conjugated TIMP-1 or mutants, with or without 500 nM RAP or 30 µg/mL LRP-1 blocking antibodies R2629; washed, surface-digested with 0.1% pronase, fluorescence of the supernatant. Conditions: one partner purified.

T1 sequence (P08254 100-272): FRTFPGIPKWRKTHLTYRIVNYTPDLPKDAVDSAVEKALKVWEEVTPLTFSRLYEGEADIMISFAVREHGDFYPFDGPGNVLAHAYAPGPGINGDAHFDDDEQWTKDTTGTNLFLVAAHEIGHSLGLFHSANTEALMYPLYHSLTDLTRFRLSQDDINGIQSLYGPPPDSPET

B1: FLAG-tagged TIMP-1 (tissue inhibitor of metalloproteinases-1), wild type (natural protein)
chain: not shown
modifications: glycosylated
notes: TIMP-1, cDNA from Origene (pCMV6-XL5) cloned into p3XFLAG-CMV14 from the start ATG; secreted by CHO cells. numbers count on: the mature protein; its concentration was measured with a Human TIMP-1 ELISA kit and the modelling used PDB 1UEA; also called T1-WT; wild-type TIMP-1; source: CHO cells, stably transfected; not shown: 3X-FLAG, C-terminal, kept
For orientation: Ki means a measure of affinity in units of concentration, obtained from inhibition or displacement. Low values mean tighter binding, high ones weaker binding. For orientation: Kd means a measure of binding affinity in units of concentration. Broadly, the koff is the first-order rate constant of dissociation. The kon is a measure of how fast the partners come together. For B1, the Ki in assay [1] was 1.18 nM; in assay [2], 0.09 nM; in assay [3] it was 4.25 nM. The Kd in assay [4] is 37.4 nM; in assay [5], 10.8 nM. Moreover, the figures for the koff in assay [4] and in assay [5] were 0.0056 s⁻¹ and 0.0136 s⁻¹, respectively. For the same molecule, the kon in assay [4] is 148000 M⁻¹ s⁻¹; in assay [5], 1.28e+06 M⁻¹ s⁻¹.

B2: FLAG-tagged TIMP-1 K47A (natural protein)
chain: not shown
modifications: glycosylated
notes: TIMP-1, cDNA from Origene, site-directed mutant K47A; secreted by CHO cells; also called T1-K47A; T1K47A; source: CHO cells, stably transfected; not shown: 3X-FLAG, C-terminal, kept
As for B2, the values for the Ki in assay [1], in assay [2] and in assay [3] were 0.55 nM, 0.03 nM and 4.4 nM, respectively. Further, in assay [4], the Kd is 26.5 nM. Also, in assay [4], the koff is 0.0114 s⁻¹. The kon in assay [4] is 427000 M⁻¹ s⁻¹.

B3: FLAG-tagged TIMP-1 F12A (natural protein)
chain: not shown
modifications: glycosylated
notes: TIMP-1, cDNA from Origene, site-directed mutant F12A; secreted by CHO cells; also called T1-F12A; source: CHO cells, stably transfected; not shown: 3X-FLAG, C-terminal, kept
In the case of B3, the Ki is 0.58 nM in assay [1], 0.06 nM in assay [2] and 4.76 nM in assay [3]. For the same molecule, the Kd in assay [4] was 38.7 nM; in assay [5], 18.5 nM. Also, the koff in assay [4] is 0.0055 s⁻¹; in assay [5], 0.0192 s⁻¹. Moreover, the kon was 143000 M⁻¹ s⁻¹ in assay [4] and 1.07e+06 M⁻¹ s⁻¹ in assay [5].

B4: eFluor-conjugated T1-WT (natural protein)
chain: not shown
modifications: biotinylated (ProtOn Biotin Labelling Kit), incubated with eFluor 450 Streptavidin
notes: TIMP-1 as in m1 (T1-WT), labelled. numbers count on: the mature protein; also called fluoT1-WT; fluo-T1-WT; source: CHO cells, stably transfected
As for B4, the “fluorescence at the cell surface” value in assay [6] was around 1500 A.U.

B5: eFluor-conjugated T1-K47A (natural protein)
chain: not shown
modifications: biotinylated (ProtOn Biotin Labelling Kit), incubated with eFluor 450 Streptavidin
notes: TIMP-1 K47A as in m3, labelled; also called fluoT1-K47A; fluoT1K47A; source: CHO cells, stably transfected
As to B5, in assay [6], the “fluorescence at the cell surface” value is around 1500 A.U.

B6: eFluor-conjugated T1-F12A (natural protein)
chain: not shown
modifications: biotinylated (ProtOn Biotin Labelling Kit), incubated with eFluor 450 Streptavidin
notes: TIMP-1 F12A as in m2, labelled; also called fluoT1-F12A; fluo-T1-F12A; source: CHO cells, stably transfected
For B6, the “fluorescence at the cell surface” value in assay [6] was around 1500 A.U.
